Measurements from article PMC10784492, “De novo biosynthesis of antiarrhythmic alkaloid ajmaline” (Nature Communications, 2024).

Assays:
RsNNMT = biological target: T1, RsNNMT (Rauvolfia serpentina, UniProt A0A075D6M1); assay: LC-MS/MS detection of ajmaline in coupled reaction; type: biochemical; details: 100 μM SAM, 20 mM Tris-HCl pH 7.5, 30 °C; norajmaline formed in situ by RsAAE1/2
T1 construct: gene NNMT; N-terminal His tag, purified from E. coli

[1] = substrate: C/C=C1/[C@@H](O)N2[C@H]3C[C@@]45c6ccccc6N[C@H]4[C@@H]2C[C@@H]1C3[C@H]5OC(C)=O; assay: LC-MS/MS product quantification, Michaelis-Menten fit; type: biochemical, Rauvolfia serpentina; details: 1 mM NADPH, 20 mM Tris-HCl pH 7.5, 30 °C, 2 min, 19,20-reduction
From the text: LC-MS/MS product quantification, Michaelis-Menten fit on tDHVR (RsRR4, N-terminal truncated; tRR4)

T1 sequence (A0A075D6M1 whole entry): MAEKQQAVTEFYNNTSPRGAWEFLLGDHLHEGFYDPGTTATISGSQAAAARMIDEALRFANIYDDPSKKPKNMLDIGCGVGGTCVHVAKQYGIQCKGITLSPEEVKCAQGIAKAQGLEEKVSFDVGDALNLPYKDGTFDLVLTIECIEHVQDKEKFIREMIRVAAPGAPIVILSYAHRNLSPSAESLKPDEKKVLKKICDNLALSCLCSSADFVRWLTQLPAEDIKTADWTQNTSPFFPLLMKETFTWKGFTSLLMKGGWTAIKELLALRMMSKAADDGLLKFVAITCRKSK

Molecule	LC-MS/MS detection of ajmaline in coupled reaction (RsNNMT)	Km [1] [µM]	kcat [1] [s⁻¹]
CC[C@H]1[C@@H]2C[C@H]3[C@@H]4Nc5ccccc5[C@]45C[C@@H]([C@H]2[C@H]5O)N3[C@@H]1O [norajmaline]	ajmaline, also confirmed with an authentic standard, was produced at the expense of norajmaline	–	–
tDHVR (RsRR4, N-terminal truncated; tRR4) (Rauvolfia serpentina) (protein, N-terminally truncated 363-residue version of the 413-residue full protein (extra N-terminal 50 removed); his-tagged in pET30b(+), E. coli, Ni-NTA; OQ591882 is printed for both DHVR and RsAAE1) MAGKSPEEQHPVKAYGWAATDSSGILSPFKFSRRATGDHDVRVKILYAGVCHSDLQSARNDMGCFTYPLVPGFETVGTATEVGSKVTKVKVGDKVAVGIMVGSCGKCDECVNDRECYCPEVITSYGRIDHDGTPTYGGFSSETVANEKFVFCFPEKLPMAAGAPLLNAGVSVYSAMRFYGLDKPGMHLGVVGLGGLGHLAVKFAKAFGVKVTVISTSTSKKGEAINDLGADAFLVSTDAEQMQAGSGTLDGILDTVPVVHPIEALLGLLKNHTKLVLVGATMGSFELPILPLGVGRKSVVSTIGGSTKETQEMLDFAAEHDITASVEIIPMDYVNTAMERIEKGDVRYRFVIDIGNTLTPPES	–	32.0	10.4
